Data taken from patent US20220380456A1 (UNITED KINGDOM RESEARCH AND INNOVATION, published 2022).

T1: His6-TEV-MSP1D1 (CA15914) (human Apo A-I derived, engineered, biotinylated with EZ-link NHS-Biotin for the BLI experiment only)
T1 construct: Membrane scaffold protein; The entry holds the 6xHis tag, the TEV cleavage site and MSP1D1; Tested in Apo-state (lipid free) and in Nanodisc-state (POPC nanodisc, two MSP1D1 per nanodisc)
T1 chain: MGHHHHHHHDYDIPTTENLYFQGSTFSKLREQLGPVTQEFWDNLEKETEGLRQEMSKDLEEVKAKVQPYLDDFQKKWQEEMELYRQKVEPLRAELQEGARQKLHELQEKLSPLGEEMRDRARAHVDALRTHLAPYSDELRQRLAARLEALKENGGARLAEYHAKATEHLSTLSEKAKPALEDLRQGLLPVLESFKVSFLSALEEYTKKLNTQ

B1: MbNbH5^c7HopQ MegaBody (CA15904) (other)
chain: QVQLVESGGGLVQTKTTTSVIDTTNDAQNLLTQAQTIVNTLKDYCPILIAKSSSSNGGTNNANTPSWQTAGGGKNSCATFGAEFSAASDMINNAQKIVQETQQLSANQPKNITQPHNLNLNSPSSLTALAQKMLKNAQSQAEILKLANQVESDFNKLSSGHLKDYIGKCDASAISSANMTMQNQKNNWGNGCAGVEETQSLLKTSAADFNNQTPQINQAQNLANTLIQELGNNTYEQLSRLLTNDNGTNSKTSAQAINQAVNNLNERAKTLAGGTTNSPAYQATLLALRSVLGLWNSMGYAVICGGYTKSPGENNQKDFHYTDENGNGTTINCGGSTNSNGTHSYNGTNTLKADKNVSLSIEQYEKIHEAYQILSKALKQAGLAPLNSKGEKLEAHVTTSKYGSLRLSCAASGFTFSTYSMSWVRQAPGKGLEWVSRILTDGGTTSYPDSVKGRFTISRDNAKNTLYLQMNNLKPEDTAVYYCARGWPSDGYSGGYRGQGTQVTVSSHHHHHHEPEA
notes: MegaBody: c7HopQ scaffold inserted in the first β-turn of Nanobody MP1521_H5; Entry includes 6xHis and EPEA tags
B2: MbNbG9^c7HopQ MegaBody (CA15899) (other)
chain: QVQLVESGGGSVQTKTTTSVIDTTNDAQNLLTQAQTIVNTLKDYCPILIAKSSSSNGGTNNANTPSWQTAGGGKNSCATFGAEFSAASDMINNAQKIVQETQQLSANQPKNITQPHNLNLNSPSSLTALAQKMLKNAQSQAEILKLANQVESDFNKLSSGHLKDYIGKCDASAISSANMTMQNQKNNWGNGCAGVEETQSLLKTSAADFNNQTPQINQAQNLANTLIQELGNNTYEQLSRLLTNDNGTNSKTSAQAINQAVNNLNERAKTLAGGTTNSPAYQATLLALRSVLGLWNSMGYAVICGGYTKSPGENNQKDFHYTDENGNGTTINCGGSTNSNGTHSYNGTNTLKADKNVSLSIEQYEKIHEAYQILSKALKQAGLAPLNSKGEKLEAHVTTSKYGSLRLSCAASGRTFSTYRMGWFRQAPGKEREFVAGWNSINIYYADSVKGRFTISGDNAKSTVYLQMNSLKPEDTAVYYCAARGLGQTEYNYWGQGTQVTVSSHHHHHHEPEA
notes: MegaBody: c7HopQ scaffold inserted in the first β-turn of Nanobody MP1521_G9; Entry includes 6xHis and EPEA tags
B3: MbNb2_B9^c7HopQ MegaBody (CA15903) (other)
chain: QVQLVESGGGLVQTKTTTSVIDTTNDAQNLLTQAQTIVNTLKDYCPILIAKSSSSNGGTNNANTPSWQTAGGGKNSCATFGAEFSAASDMINNAQKIVQETQQLSANQPKNITQPHNLNLNSPSSLTALAQKMLKNAQSQAEILKLANQVESDFNKLSSGHLKDYIGKCDASAISSANMTMQNQKNNWGNGCAGVEETQSLLKTSAADFNNQTPQINQAQNLANTLIQELGNNTYEQLSRLLTNDNGTNSKTSAQAINQAVNNLNERAKTLAGGTTNSPAYQATLLALRSVLGLWNSMGYAVICGGYTKSPGENNQKDFHYTDENGNGTTINCGGSTNSNGTHSYNGTNTLKADKNVSLSIEQYEKIHEAYQILSKALKQAGLAPLNSKGEKLEAHVTTSKYGSLRLSCVRSARTFGSVAMGWFRQAPGKEREFVTAIDWSGSNTLYADSVKGRFTISRDNAKNTVYLQMNSLKPDDTAVYYCAASRRVVVTTSDFDSWGQGTQVTVSSHHHHHHEPEA
notes: MegaBody: c7HopQ scaffold inserted in the first β-turn of Nanobody MP1522_B9; Entry includes 6xHis and EPEA tags
B4: MbNbA12^c7HopQ MegaBody (CA15900) (other)
chain: QVQLVESGGGLVQTKTTTSVIDTTNDAQNLLTQAQTIVNTLKDYCPILIAKSSSSNGGTNNANTPSWQTAGGGKNSCATFGAEFSAASDMINNAQKIVQETQQLSANQPKNITQPHNLNLNSPSSLTALAQKMLKNAQSQAEILKLANQVESDFNKLSSGHLKDYIGKCDASAISSANMTMQNQKNNWGNGCAGVEETQSLLKTSAADFNNQTPQINQAQNLANTLIQELGNNTYEQLSRLLTNDNGTNSKTSAQAINQAVNNLNERAKTLAGGTTNSPAYQATLLALRSVLGLWNSMGYAVICGGYTKSPGENNQKDFHYTDENGNGTTINCGGSTNSNGTHSYNGTNTLKADKNVSLSIEQYEKIHEAYQILSKALKQAGLAPLNSKGEKLEAHVTTSKYGSLRLSCAASGRTFSSYNMAWFRQVPGKEREFVASIARTGSGTYYRDSVKGRFTISRDNAKNTVYLQMNSLKPQDTAVYYCTAGGSLATISDYWGQGTQVTVSSHHHHHHEPEA
notes: MegaBody: c7HopQ scaffold inserted in the first β-turn of Nanobody MP1522_A12; Entry includes 6xHis and EPEA tags
B5: MbNbE4^c7HopQ MegaBody (CA15191) (other)
chain: QVQLVESGGGLVQTKTTTSVIDTTNDAQNLLTQAQTIVNTLKDYCPILIAKSSSSNGGTNNANTPSWQTAGGGKNSCATFGAEFSAASDMINNAQKIVQETQQLSANQPKNITQPHNLNLNSPSSLTALAQKMLKNAQSQAEILKLANQVESDFNKLSSGHLKDYIGKCDASAISSANMTMQNQKNNWGNGCAGVEETQSLLKTSAADFNNQTPQINQAQNLANTLIQELGNNTYEQLSRLLTNDNGTNSKTSAQAINQAVNNLNERAKTLAGGTTNSPAYQATLLALRSVLGLWNSMGYAVICGGYTKSPGENNQKDFHYTDENGNGTTINCGGSTNSNGTHSYNGTNTLKADKNVSLSIEQYEKIHEAYQILSKALKQAGLAPLNSKGEKLEAHVTTSKYGSLRLSCAASGRTFGSTFMGWFRQAPGKERDFVASITWNRGLTTYADSVKGRFTISRDSAKNTVDLQMNNLKPEDTAVYYCVLGMGTSFASWGQGTQVTVSSHHHHHHEPEA
notes: MegaBody: c7HopQ scaffold inserted in the first β-turn of Nanobody MP1521_E4; Entry includes 6xHis and EPEA tags
B6: MDNb1_B9^c7HopQ MegaBody (CA15898) (other)
chain: QVQLVESGGGLVQTKTTTSVIDTTNDAQNLLTQAQTIVNTLKDYCPILIAKSSSSNGGTNNANTPSWQTAGGGKNSCATFGAEFSAASDMINNAQKIVQETQQLSANQPKNITQPHNLNLNSPSSLTALAQKMLKNAQSQAEILKLANQVESDFNKLSSGHLKDYIGKCDASAISSANMTMQNQKNNWGNGCAGVEETQSLLKTSAADFNNQTPQINQAQNLANTLIQELGNNTYEQLSRLLTNDNGTNSKTSAQAINQAVNNLNERAKTLAGGTTNSPAYQATLLALRSVLGLWNSMGYAVICGGYTKSPGENNQKDFHYTDENGNGTTINCGGSTNSNGTHSYNGTNTLKADKNVSLSIEQYEKIHEAYQILSKALKQAGLAPLNSKGEKLEAHVTTSKYGSLRLSCAASGRTLCSIPMGWFRQAPGKEREFVAAIRWSGGSTYYADSVKGRFSISKDNAKNTVYLQMNNLKPEDTATYYCASAAPYSSWSRGLEYDYWGQGTQVTVSSHHHHHHEPEA
notes: MegaBody: c7HopQ scaffold inserted in the first β-turn of Nanobody MP1521_B9; Entry includes 6xHis and EPEA tags; The name is printed 'MDNb', probably for 'MbNb'
B7: MbNbB7^c7HopQ MegaBody (CA15901) (other)
chain: QVQLVESGGGLVQTKTTTSVIDTTNDAQNLLTQAQTIVNTLKDYCPILIAKSSSSNGGTNNANTPSWQTAGGGKNSCATFGAEFSAASDMINNAQKIVQETQQLSANQPKNITQPHNLNLNSPSSLTALAQKMLKNAQSQAEILKLANQVESDFNKLSSGHLKDYIGKCDASAISSANMTMQNQKNNWGNGCAGVEETQSLLKTSAADFNNQTPQINQAQNLANTLIQELGNNTYEQLSRLLTNDNGTNSKTSAQAINQAVNNLNERAKTLAGGTTNSPAYQATLLALRSVLGLWNSMGYAVICGGYTKSPGENNQKDFHYTDENGNGTTINCGGSTNSNGTHSYNGTNTLKADKNVSLSIEQYEKIHEAYQILSKALKQAGLAPLNSKGEKLEAHVTTSKYGSLRLSCAASGRSFSSYGMGWFRQAPGKEREFAAGITGTAGITYYTDSVKGRFTISRDNAKNTVYLQMNNLKPEDTAVYYCAAGLTSYAGRGAAGYDYWGQGTQVTVSSHHHHHHEPEA
notes: MegaBody: c7HopQ scaffold inserted in the first β-turn of Nanobody MP1522_B7; Entry includes 6xHis and EPEA tags

Legend:
[1] = biological target: T2, His6-TEV-MSP2N2 (CA15915) (human Apo A-I derived, engineered, UniProt P02647 79-267, limits assumed); experiment: ELISA, purified MegaBody on coated MSP (Apo- or Nanodisc-state) vs non-coated wells, A405
T2 construct: Membrane scaffold protein; The entry holds the 6xHis tag, the TEV cleavage site and MSP2N2; Tested in Apo-state, in Nanodisc-state, and as the belt of nanodiscs loaded with GABAAR-β3

[2] = biological target: T1, His6-TEV-MSP1D1 (CA15914); experiment: as above

| Binder | fold ELISA signal over no MSP [1] | fold ELISA signal over no MSP [2] |
| --- | --- | --- |
| B1 | ≥ 4 fold | ≥ 4 fold |
| B2 | ≥ 4 fold | ≥ 4 fold |
| B3 | ≥ 4 fold | ≥ 4 fold |
| B4 | ≥ 4 fold | ≥ 4 fold |
| B5 | ≥ 4 fold | ≥ 4 fold |
| B6 | ≥ 4 fold | ≥ 4 fold |
| B7 | ≥ 4 fold | ≥ 4 fold |
